# Results: PMC2686167, “Structure of Human DNA Polymerase κ Inserting dATP Opposite an 8-OxoG DNA Lesion”
# T1: DNA polymerase kappa catalytic core (Polκ19-526) (Homo sapiens, UniProt Q9UBT6 19-526)
# T1 sequence: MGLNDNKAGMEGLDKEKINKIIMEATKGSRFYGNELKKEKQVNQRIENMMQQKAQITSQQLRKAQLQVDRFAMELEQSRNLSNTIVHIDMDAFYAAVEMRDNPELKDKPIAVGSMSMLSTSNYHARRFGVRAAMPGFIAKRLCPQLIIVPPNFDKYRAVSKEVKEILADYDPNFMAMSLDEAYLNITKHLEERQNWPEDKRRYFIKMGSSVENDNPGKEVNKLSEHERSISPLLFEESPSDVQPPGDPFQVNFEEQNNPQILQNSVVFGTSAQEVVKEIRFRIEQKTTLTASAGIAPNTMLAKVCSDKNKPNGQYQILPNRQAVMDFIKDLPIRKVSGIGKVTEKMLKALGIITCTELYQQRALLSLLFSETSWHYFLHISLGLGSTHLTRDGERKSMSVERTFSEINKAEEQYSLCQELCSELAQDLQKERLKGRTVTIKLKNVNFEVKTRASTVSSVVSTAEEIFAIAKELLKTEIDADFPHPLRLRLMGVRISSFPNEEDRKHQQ
# B1: 13-nt/18-nt primer/template with 8-oxoG (dsDNA)
# DNA 1: CCTAGGAGTCCTTCCCCC
# DNA 2: GGGGGAAGGACTC
# modifications: template G5 = 7,8-dihydro-8-oxoguanine; primer 3' terminal C = dideoxycytidine
# Target: T1, DNA polymerase kappa catalytic core …
# Test: X-ray crystallography (3.2 Å); dATP, Mg2+ (ternary complex); Crystal structure only; cocrystallization conditions not in the material
# Settings: protein: recombinant; tags: N-terminal GST removed with PreScission protease; 5' overhang 5 nt on template; recessed 3' primer end
binder,measurement,value
B1,binding result,binds
